According to paper PMC9482650, “Quantitative fragmentomics allow affinity mapping of interactomes” (Nature Communications, 2022):

T1: DLG3_2, Q92796
T1 sequence (Q92796 221-321, limits assumed, looked up): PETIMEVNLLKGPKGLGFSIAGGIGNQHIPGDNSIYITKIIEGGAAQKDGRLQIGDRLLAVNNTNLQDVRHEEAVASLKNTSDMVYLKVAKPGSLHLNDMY

T2: SYNJ2BP, P57105
T2 sequence (P57105 8-110, limits assumed, looked up): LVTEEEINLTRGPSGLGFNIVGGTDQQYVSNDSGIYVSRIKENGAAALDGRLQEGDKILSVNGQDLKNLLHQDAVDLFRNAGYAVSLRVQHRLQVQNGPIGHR

T3: LIN7B, Q9HAP6
T3 sequence (Q9HAP6 88-185, limits assumed, looked up): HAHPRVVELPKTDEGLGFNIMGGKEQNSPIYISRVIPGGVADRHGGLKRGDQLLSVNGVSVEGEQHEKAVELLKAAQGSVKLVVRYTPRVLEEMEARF

T4: PTPN13_1, Q12923
T4 sequence (Q12923 1088-1188, limits assumed, looked up): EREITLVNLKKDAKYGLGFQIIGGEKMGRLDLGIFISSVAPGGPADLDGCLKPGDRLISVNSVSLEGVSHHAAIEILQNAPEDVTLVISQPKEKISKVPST

T5: RHPN1, Q8TCX5
T5 sequence (Q8TCX5 508-602, limits assumed, looked up): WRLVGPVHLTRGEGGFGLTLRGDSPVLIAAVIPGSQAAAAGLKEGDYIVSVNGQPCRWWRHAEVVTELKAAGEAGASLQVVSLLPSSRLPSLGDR

T6: HTRA3, P83110
T6 sequence (P83110 354-453, limits assumed, looked up): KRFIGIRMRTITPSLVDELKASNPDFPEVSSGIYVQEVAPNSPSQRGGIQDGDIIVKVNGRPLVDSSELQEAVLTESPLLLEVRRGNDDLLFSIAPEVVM

T7: GRIP1_4, Q9Y3R0
T7 sequence (Q9Y3R0 467-571, limits assumed, looked up): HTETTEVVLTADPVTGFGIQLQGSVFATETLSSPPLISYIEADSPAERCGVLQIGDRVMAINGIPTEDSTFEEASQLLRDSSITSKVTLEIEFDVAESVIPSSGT

T8: MPDZ_10, O75970
T8 sequence (O75970 1624-1722, limits assumed, looked up): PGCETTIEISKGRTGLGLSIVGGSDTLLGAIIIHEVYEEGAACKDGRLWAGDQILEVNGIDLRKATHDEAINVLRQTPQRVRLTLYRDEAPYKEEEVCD

T9: GRIP1_2, Q9Y3R0
T9 sequence (Q9Y3R0 145-248, limits assumed, looked up): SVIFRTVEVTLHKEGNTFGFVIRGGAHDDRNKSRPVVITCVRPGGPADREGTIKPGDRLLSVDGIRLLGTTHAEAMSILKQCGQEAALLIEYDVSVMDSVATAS

T10: DFNB31_2, Q9P202
T10 sequence (Q9P202 274-371, limits assumed, looked up): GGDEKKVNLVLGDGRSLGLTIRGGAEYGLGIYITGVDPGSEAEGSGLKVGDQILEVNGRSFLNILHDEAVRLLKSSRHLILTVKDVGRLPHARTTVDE

T11: DLG3_3, Q92796
T11 sequence (Q92796 374-475, limits assumed, looked up): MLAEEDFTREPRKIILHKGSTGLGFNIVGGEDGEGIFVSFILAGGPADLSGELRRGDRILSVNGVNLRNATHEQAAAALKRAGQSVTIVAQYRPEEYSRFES

T12: PARD3B_1, Q8TEW8
T12 sequence (Q8TEW8 196-299, limits assumed, looked up): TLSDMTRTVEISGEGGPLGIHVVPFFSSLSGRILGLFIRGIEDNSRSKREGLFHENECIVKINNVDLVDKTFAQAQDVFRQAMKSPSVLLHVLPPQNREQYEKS

B1: CLDN10, P78369 (peptide)
chain: SKQFDKNAYV
B2: PALLS, Q8WX93;Q8WX93-1 (peptide)
chain: NTALVESEDL
B3: HNRNPK, P61978;P61978-2 (peptide)
chain: VKQYADVEGF
B4: SLC26A3, P40879 (peptide)
chain: VYEVPVETKF
B5: SLC9A3, P48764 (peptide)
chain: PAALPESTHM

Columns and labels:
Assay in all cases: holdup assay
Set-up in all cases: key: below the threshold = too weak to quantify, mostly under pKd 3.1 to 4
Conditions in all cases: plain residues with an end cap or a label only (N-terminal biotin on a linker: ado-ado)
TJP2_1, Q9UDY2 = target: TJP2_1, Q9UDY2
DLG3_2, Q92796 = target: T1, DLG3_2, Q92796
SYNJ2BP, P57105 = target: T2, SYNJ2BP, P57105
LIN7B, Q9HAP6 = target: T3, LIN7B, Q9HAP6
PTPN13_1, Q12923 = target: T4, PTPN13_1, Q12923
Inadl_10, Q8NI35 = target: Inadl_10, Q8NI35
RHPN1, Q8TCX5 = target: T5, RHPN1, Q8TCX5
HTRA3, P83110 = target: T6, HTRA3, P83110
GORASP2, Q9H8Y8 = target: GORASP2, Q9H8Y8
DLG2_2, Q15700 = target: DLG2_2, Q15700
GRIP1_4, Q9Y3R0 = target: T7, GRIP1_4, Q9Y3R0
MPDZ_10, O75970 = target: T8, MPDZ_10, O75970
HTRA1, Q92743 = target: HTRA1, Q92743
GRIP1_2, Q9Y3R0 = target: T9, GRIP1_2, Q9Y3R0
DFNB31_2, Q9P202 = target: T10, DFNB31_2, Q9P202
IL16_1, Q14005 = target: IL16_1, Q14005
NOS1, P29475 = target: NOS1, P29475
DLG4_2, P78352 = target: DLG4_2, P78352
LAP2, Q96RT1 = target: LAP2, Q96RT1
Inadl_5, Q8NI35 = target: Inadl_5, Q8NI35
TJP1_3, Q07157 = target: TJP1_3, Q07157
DLG3_3, Q92796 = target: T11, DLG3_3, Q92796
PARD3B_1, Q8TEW8 = target: T12, PARD3B_1, Q8TEW8
NHERF4_4, Q86UT5 = target: NHERF4_4, Q86UT5
Inadl_9, Q8NI35 = target: Inadl_9, Q8NI35
Inadl_9, Q8NI35, sequence (Q8NI35 1530-1615): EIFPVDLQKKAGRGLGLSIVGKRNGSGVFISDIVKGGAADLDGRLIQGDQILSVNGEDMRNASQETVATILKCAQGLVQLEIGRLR

DLG4_2, P78352, sequence (P78352 155-259): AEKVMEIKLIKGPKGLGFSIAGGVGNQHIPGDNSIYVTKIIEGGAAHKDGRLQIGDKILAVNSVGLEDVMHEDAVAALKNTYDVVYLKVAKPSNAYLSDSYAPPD
IL16_1, Q14005, sequence (Q14005 210-306): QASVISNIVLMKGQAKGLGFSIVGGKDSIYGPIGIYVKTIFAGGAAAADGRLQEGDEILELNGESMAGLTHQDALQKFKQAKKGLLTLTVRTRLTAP
LAP2, Q96RT1, sequence (Q96RT1 other isoform, or with tags, fused parts or gaps): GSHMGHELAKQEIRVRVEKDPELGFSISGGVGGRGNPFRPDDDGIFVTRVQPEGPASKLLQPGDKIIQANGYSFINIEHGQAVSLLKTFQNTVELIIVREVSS
Inadl_10, Q8NI35, sequence (Q8NI35 1673-1763): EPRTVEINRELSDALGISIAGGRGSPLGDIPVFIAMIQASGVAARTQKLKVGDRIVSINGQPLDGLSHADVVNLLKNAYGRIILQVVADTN
DLG2_2, Q15700, sequence (Q15700 189-283): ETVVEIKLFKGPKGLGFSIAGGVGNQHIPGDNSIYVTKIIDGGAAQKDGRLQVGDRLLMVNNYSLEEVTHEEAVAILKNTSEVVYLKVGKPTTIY
TJP1_3, Q07157, sequence (Q07157 416-512): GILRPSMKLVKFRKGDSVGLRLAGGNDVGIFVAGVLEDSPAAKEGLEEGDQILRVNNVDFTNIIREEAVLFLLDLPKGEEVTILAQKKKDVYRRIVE
Inadl_5, Q8NI35, sequence (Q8NI35 673-780): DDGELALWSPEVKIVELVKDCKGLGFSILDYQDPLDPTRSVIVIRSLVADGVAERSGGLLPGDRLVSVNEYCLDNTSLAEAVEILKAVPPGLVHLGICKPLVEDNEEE
TJP2_1, Q9UDY2, sequence (Q9UDY2 24-128): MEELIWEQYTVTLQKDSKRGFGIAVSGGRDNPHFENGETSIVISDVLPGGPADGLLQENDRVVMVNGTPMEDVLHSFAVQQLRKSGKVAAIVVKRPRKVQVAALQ
NHERF4_4, Q86UT5, sequence (Q86UT5 464-550): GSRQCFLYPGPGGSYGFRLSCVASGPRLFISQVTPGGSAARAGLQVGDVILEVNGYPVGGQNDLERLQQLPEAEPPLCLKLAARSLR
NOS1, P29475, sequence (P29475 9-101): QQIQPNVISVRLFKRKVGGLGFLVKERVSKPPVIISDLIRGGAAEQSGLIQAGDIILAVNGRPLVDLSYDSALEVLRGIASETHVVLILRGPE
HTRA1, Q92743, sequence (Q92743 360-477): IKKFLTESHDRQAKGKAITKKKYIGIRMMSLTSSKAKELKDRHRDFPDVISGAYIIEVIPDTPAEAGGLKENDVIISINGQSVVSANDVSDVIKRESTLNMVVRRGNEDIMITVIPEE

Binder | pKd (TJP2_1, Q9UDY2) | pKd (DLG3_2, Q92796) | pKd (PTPN13_1, Q12923) | pKd (Inadl_10, Q8NI35) | pKd (RHPN1, Q8TCX5) | pKd (HTRA3, P83110) | pKd (GORASP2, Q9H8Y8) | pKd (DLG2_2, Q15700) | pKd (GRIP1_4, Q9Y3R0) | pKd (MPDZ_10, O75970) | pKd (HTRA1, Q92743) | pKd (GRIP1_2, Q9Y3R0) | pKd (DFNB31_2, Q9P202) | pKd (IL16_1, Q14005) | pKd (NOS1, P29475) | pKd (DLG4_2, P78352) | pKd (LAP2, Q96RT1) | pKd (Inadl_5, Q8NI35) | pKd (TJP1_3, Q07157) | pKd (DLG3_3, Q92796) | further results
B1 | 4.19 | below the threshold | below the threshold | below the threshold | 3.57 | 4.06 | below the threshold | below the threshold | below the threshold | below the threshold | 3.97 | below the threshold | below the threshold | below the threshold | 3.61 | 3.52 | below the threshold | 3.52 | below the threshold | below the threshold | pKd (SYNJ2BP, P57105): below the threshold; pKd (LIN7B, Q9HAP6): below the threshold; pKd (PARD3B_1, Q8TEW8): 3.97; pKd (NHERF4_4, Q86UT5): below the threshold; pKd (Inadl_9, Q8NI35): below the threshold
B2 | below the threshold | below the threshold | below the threshold | below the threshold | below the threshold | below the threshold | below the threshold | below the threshold | below the threshold | below the threshold | below the threshold | below the threshold | below the threshold | below the threshold | below the threshold | below the threshold | below the threshold | below the threshold | below the threshold | below the threshold | pKd (LIN7B, Q9HAP6): below the threshold; pKd (NHERF4_4, Q86UT5): below the threshold; pKd (Inadl_9, Q8NI35): below the threshold
B3 | below the threshold | 4.09 | below the threshold | below the threshold | below the threshold | below the threshold | below the threshold | below the threshold | below the threshold | below the threshold | below the threshold | below the threshold | below the threshold | below the threshold | below the threshold | below the threshold | below the threshold | below the threshold | below the threshold | below the threshold | pKd (SYNJ2BP, P57105): below the threshold; pKd (PARD3B_1, Q8TEW8): below the threshold; pKd (Inadl_9, Q8NI35): below the threshold
B4 | 4.02 | 4.13 | below the threshold | below the threshold | 4.03 | below the threshold | below the threshold | below the threshold | below the threshold | below the threshold | below the threshold | below the threshold | below the threshold | below the threshold | 3.72 | 3.66 | below the threshold | below the threshold | below the threshold | below the threshold | pKd (SYNJ2BP, P57105): 3.57; pKd (LIN7B, Q9HAP6): 4.21; pKd (PARD3B_1, Q8TEW8): 4.19; pKd (NHERF4_4, Q86UT5): below the threshold; pKd (Inadl_9, Q8NI35): below the threshold
B5 | below the threshold | below the threshold | below the threshold | below the threshold | below the threshold | below the threshold | below the threshold | below the threshold | below the threshold | below the threshold | below the threshold | below the threshold | below the threshold | below the threshold | below the threshold | below the threshold | below the threshold | below the threshold | below the threshold | below the threshold | pKd (SYNJ2BP, P57105): below the threshold; pKd (LIN7B, Q9HAP6): below the threshold; pKd (PARD3B_1, Q8TEW8): 3.6; pKd (NHERF4_4, Q86UT5): below the threshold; pKd (Inadl_9, Q8NI35): below the threshold
